In the DeepSol protein solubility set:

test: soluble on expression in E. coli; label from the status in PepcDB or PDB records

Soluble on expression in E. coli, not soluble:
MGSDKIHHHHHHMMTDARTTAEGGMETSYGFHKVDEGKKQGLVNEVFHKVAKRYDIMNDVMSAGLHRLWKDAMVSALSPRKDPSYKILDVAGGTGDVAFRIIEASNRLAHATVLDINGSMLAVGEERAAKKKLSDNLTFVEANAEELPFEANTFDAYTVAFGIRNVPRIDVALKEAYRVLKRGGRLLVLEFSEVDMPLLDRVYDAWSFNAIPQFGKMITGDAEPYQYLVESIRKFPNQEDFATMIRTAGFSRVTYTNYTGGIAALHSGWKL, MGSDKIHHHHHHMMTLTVEYYFTHPQDKLGMYASDPEDNSQEHGHEFAELVIVEEGHGLHVINGRPLYIQQGDVFYVQPGDVHYYDELGTLKLINVLINPAVAFGYLQQMEGLLQQLSAQRAACYGWLAPETRSYCRELVEKIFSPALRAADNTPLRESLFFQLVTTILTAESEAEYSSTRYKLHKLLTWLQEHCFEEHNWQQLAEQFHLTTRTAFRHIKEATGLTPDNYLKRLRLVSARVKLRETEMTITEVAYLCGFANSNHFTTLYKKVFGLTPSADRRRPPG, MGSDKIHHHHHHMMYKHVALLVRQDDMSHEEFVDYWQANHTPIAKDIEGVVRYQQVLPTEPAHAEFDGLAELYFETLEDLHEALGSPGSRDYDPTKEIAAKAREDVNNFLAVEERPRIIGEEIVQKDEVDGDTDGLYKHSAFLVRQDDMTHEEFVDYWQTNHTPIAREIEGVVKYNTVIPTDPENAEFDGVAELYFDDIEKLYDALGSEGLRDYAPDRGKAKAAREDVNNFLAIDERPRFIGQEQLVKDEG, MGSDKIHHHHHHMNALTWLTKHSQAVIFRKKLAGLTACSQMIELSTPLNDGQRKFIFRQQSARATLLAINYAQEAYILQHLDALPFTPKVYYQTANSSLLTWLEGKPATAFDPDLLEQLALQLATLHAYPLPKQRTILQLAERCQLLWDRLTPSQQHQLNFCPPFKKIEPLQLAICHHDLHLANLIQHQQQLFIIDWEYSAISDPVLEIALFFQANTLNSVQKQFFLTTYLSKINLNEPLFKQKMAEYTPAIQQLSQLWYALSEAIT, MGSDKIHHHHHHMNAVISILVENTTPSPSLIGEYGFSALVEVDERKILFDTGSSDALFKNAENLGVKLEEVEALVISHGHFDHTSAVIPFLQRFGPKKLYLHPGIFSQRYLQGKKGLGPNIGCPFEPEDLVKNGAEIIFIDSFSEIMPGVFISGEIPRRNSFENTGGNFKVATHHGLLEDRLLDDMALLVDHPEGLIIISGCAHSGMINTIEYIREKTGRSKILAFIGGTHLITASEDRLAQTIAVLKMMDIEKIAVGHCTGFYAAARLLNELGPRVIKADTGMSFSF, MGSDKIHHHHHHMNDYIIEMLNITKEFPGIIANDNITLRLKKGEIHALLGENGAGKSTLMSVLFGLYQPEKGEIRKNGNTVKINNPNDANALGIGMVHQHFKLVEIFTVLENIILGVEPHALGFLQKKKAREKVVELSKQYGLEVNPDALIEKISVGMQQRVEILKMLYRDNEILIFDEPTAVLTPQEIDELMEIMRRFAKEGKSILFITHKLNEIMAVADRCTVLRKGQYVGTVDIKDTTKEELSRMMVGRDVSFRVQKETMTPGRVVLSVRNVSVPSKTSKKNAVSNVSFDVRAGEIVCLAGIDGNGQTEFVSALTGLERHTSGTITLCDQDISKASVRTRSQAGMSHIPEDRHKYGLVLDYTLEDNLVIQRYWQPQFQRFGFIRRKAVRSYAEGLIKQYDVRSGQGPLTIARSMSGGNQQKTIIGREIDKDHELLVAVQPTRGLDVGAIEYIHKQLVARRNAGKAVLLVSLELDEVMNVSDRILVMYEGEIVGELDPKTTTVQELGLYMSGAKRNLKEGSHAG, MGSDKIHHHHHHMNEADVTKFVNNARKTLTDAQLLCSSANLRIVDIKKKLSSWQLSISKLNFLIVGLRQQGKFLYTILKEGIGTKLIQKQWNQAVLVVLVDEMKYWQYEITSKVQRLDGIVNELSISEKDDTDPSKLGDYISRDNVNLLNDKLKEVPVIERQIENIKLQYENMVRKVNKELIDTKLTDVTQKFQSKFGIDNLMETNVAEQFSRELTDLEKDLAEIMNSLTQHFDKTLLLQDKKIDNDEREELFKVVQGDDKELYNIFKTLHEVIDDVDKTILNLGQFLQAKIKEKTELHSEVSEIINDFNRNLEYLLIFKDISNLIDSFKNSCTQDIQTTKELCEFYDNFEESYGNLVLEAKRRKDVANRMKTILKDCEKQLQNLDAQDQEERQNFIAENGTYLPETIWPGKIDDFSSLYTLNYNVKNP, MGSDKIHHHHHHMNEIVKLISKHNDVRTGAINLIVSENRMSPAALAALSSDLASRYAAPFYAGTDISQEIVAITEQKAKKLFNAEYVNISPISGSASLMAVVFALTSPGDKVGRVPPFFPGGGYPFNYEVFDRVSLPLPFDDEEWQLDLEATLELLEREKPKLVILGASIFTVPMPVREVADLVHSYGGIVAYDGSHSLGLIVGKQYQDPLNEGADILFGSTHKTFPGPQGGIIVTNSKELNDRIDIVSNFTPLNGPTMICNPHLARIASLGIVIDEVPWERYAEQVVKNSRAFANTLQAKGYEMRGQSTKKFSELSYCHQVLPKLDRQMGQGYRDKLKQHNIHVDGFMRVGTAEITRLGYVEADCTRISEIMAEIVSSNQDVIPSLRHEVVEMNANHQHIVM, MGSDKIHHHHHHMNELTNKLQQVMVPKAALIAYEYRENRYGNGMHYLELHPINDRGRMEAAMPVTYEFMDSLVESYTDDRRNVPHGKIPANMLWCDTRKGHERYIWYNPPGKRRMFFAGSLNIPDGTFHVPGVIYKVSGDRLDIFSYKGEKPAENSPLFLAPFFNVTGSSVCLGNAALTPPEDMTFSKLLEYWEKRFWLSEFSHLGGSRNPTGSNLVSVTEKARANPFDENELKPMSKQLKDLLA, MGSDKIHHHHHHMNFAMTPEEAKTNEAYCRALIELLYQLADDDYIVAYRGSEWLGLAPHIEEDVAFSSITQNTMGHAVMFYELLEQLGEGDADTLAHERDPALRRNSVYLEKKNGSGTYLDEPHYDWALTVIRHFFYETFKKIRLEALTQSSYVPLAKAAQRVLMEQPYHLAHWKTWLCQLQQSTEEAKNRLMERIDEAWLEILDMLELGLKGGEMVEYQLITDEATIQQQWVKEMNKSLFYVPSQSLQKQEGNGRNGEHTDDLQQALSTCSEVYNSDRHAVW, MGSDKIHHHHHHMNFCRILLKPLKKNEALSGYSAEGLHYLTDNKHFNPELPFSRQEFITVKPQKQQGMSISGFQPKLQLIIKDEHFDSVNQQGNYILKPSPEEYPFLAENEHATMRIMKELGFDVPENGLVSFAGEQNHKEFAFVITRFDRDKQQKPMHQEQLDGAMNIRDKYGKIGADNEQYVSYEQIAKFILQHTENHLAQQREIFRRIIYAYLLGNNDLHLRNFSFIYPKNSHPKLAPIYDFVSVSPYPEIFNSTLLALPLLAREEGNATLAKGFNTQYGEYIGDDFVEFGENIGLNKNVIIQKLIPEIIQEKEKVEQIYSQSFMPQPHIDCVLKTYRKRLALLNLLNEPEL, MGSDKIHHHHHHMNFISRVTKKNTYMKKAVIYSRVSTDEQAQLGYSLRDQERCLRLFCEKNDLEVVHHYQDDHSAKDFNRPQFQQFLRDVKSKRIKVDYFVCLKQDRFSRDTRLALNSVHDLEKLGVTVKYVENNLDLSIAENIIPYLLNFGIAELENKRLSERTKKGMRQAKREGRWVGTPPRGYKSIPDSTGKKILTPNQYSTLIIEAFTEFAQGNHSTESLRKVLYARGLKVSENQFPNILKNPIYCGKIRIDEWKEEKEEIVIGIHEPLISVELFEKVQRILNGTSTPNKPHKKLDPELPLRPFLKCSCGSNLTGSRSRSRNGNYHYYYHCQNGCSVRFPAKVANKKFETFLSMFSFSEDVILLYKEVLKDEFSKQVKERLELSAADAALKLKTQNLLDNADEKYIANELDNTTYQRVKEKYQKILDTITNKELDSKVVKSEFEKYLKGVTLLDSLDVKYKEGTIEFKNALLGSIFMGKLEFSENEYRTTQINSVVENLLLNFNELASYKKEKATTNSGFLQQAPPLGLEPRTP
